According to patent US20090280132A1:

Target: Fc receptor (FcR) on antigen presenting cells
Experiment: cell-based or functional assay

Substance: Ig-W (from UniProt P01867 1-335) (antibody)
- inhibition of IL-2 production in Ig-PLP1 mediated activation of 4E3 T cells: 50%
